Patent publication US9060970B2, “Bridge-helix cap: target and method for inhibition of bacterial RNA polymerase” (priority 2011, dated 2015)
Values after ≈ are worked out from the molar mass of the structure shown. “Also recorded” adds a separate entry of the source. Marks after values point to notes of the source that are not given here.

What was measured:
[1] = tested on: Sal-resistant mutants of E. coli D21f2tolC (rpoC / rpoB substitutions); assay: Broth microdilution resistance / cross-resistance levels of spontaneous Sal-resistant mutants; format: cell-based, Escherichia coli; settings: for cross-resistance level (MIC/MICwild-type): values <1 = hypersensitivity; for cross-resistance of Sal-resistant mutants (in words): broth microdilution (Table 4)
Protocol: (§1) Isolation of Sal-Resistant Mutants: Spontaneous Sal-Resistant Mutants. E. coli D21f2tolC (6) was cultured to saturation in 5 ml LB broth (7) at 37° C., cultures were centrifuged, and cell pellets (˜3×10^9 cells) were re-suspended in 50 μl LB broth and plated on LB agar (7) containing 1.2 μg/ml Sal (a concentration four times the minimal concentration required to prevent growth of wild-type cells under these conditions), and incubated 24-48 h at 37° C. Sal-resistant mutants were identified by the ability to form colonies on this medium and were confirmed by re-streaking on the same medium.
(§2) Quantitation of Resistance to Sal. Resistance to Sal was quantified by performing broth microdilution assays. Single colonies were inoculated into 3 ml LB broth, and incubated 3-6 h at 37° C. with shaking. Diluted aliquots (2×10^4 cells in 98 μl LB broth; concentrations determined using OD600=1 for 10^9 cells) were dispensed into wells of a 96-well plate, were supplemented with 2 μl of a 2-fold dilution series of Sal in methanol (final concentrations of […], 0.390, 0.195, 0.0975, 0.0488, 0.0244, 0.0122, and 0.00609 μg/ml) or 2 μl of a solvent blank, and were incubated 16 h at 37° C. with shaking. The minimum inhibitory concentration (MIC) was defined as the lowest tested concentration of Sal that inhibited bacterial growth by 95%.
(§3) Quantitation of Cross-Resistance to Rifampin and CBR703. Cross-resistance levels were determined analogously to resistance levels, using 0.12-0.78 μg/ml of rifampin (Sigma, Inc.) and 0.39-25 μg/ml of CBR703 (Maybridge, Inc.).

E. coli D21f2tolC [2] = assay: Broth microdilution MIC, wild-type rpoC and rpoB; format: cell-based, Escherichia coli; settings: LB broth, 16 h at 37° C., lowest concentration inhibiting growth by 95%
Protocol: as §2, §3

E. coli D21f2tolC [3] = assay: Spontaneous resistance frequency by plating on LB agar containing inhibitor; format: cell-based, Escherichia coli; settings: LB agar, each compound at 4×MIC, colonies counted after 24 h at 37° C.
Text: Sal-Resistant Mutants Map to RNAP-Subunit Genes. To determine whether Sal kills bacteria by inhibiting RNAP, spontaneous Sal-resistant mutants were isolated, and genes for RNAP subunits in Sal-resistant mutants were PCR-amplified and sequenced (FIG. 3A). Spontaneous Sal-resistant mutants were isolated by plating high-density cultures of E. coli D21f2tolC (˜3×10^9 cells per plate) on agar containing Sal and identifying rare resistant colonies (FIG. 3B). For each Sal-resistant mutant, genomic DNA was prepared, and the genes for the largest RNAP subunit and the second-largest RNAP subunit—rpoC encoding RNAP β′ subunit and rpoB encoding RNAP β subunit were PCR-amplified and sequenced (FIG. 3C).
Co-Administration of Sal and Rifampin Reduces Spontaneous Resistance to Undetectable Levels.
Co-Administration of Sal and CBR703 Reduces Spontaneous Resistance to Undetectable Levels.
as §1

[4] = biological target: Escherichia coli RNA polymerase with wild-type rpoC and wild-type rpoB, in E. coli D21f2tolC (Escherichia coli) (UniProt P0A8T7); assay: cell-based or functional assay
[5] = biological target: E. coli RNAP, β′ subunit 780 Arg→Cys (Escherichia coli) (UniProt P0A8T7); assay: cell-based or functional assay
[6] = biological target: E. coli RNAP, β′ subunit 738 Arg→His (Escherichia coli) (UniProt P0A8T7); assay: cell-based or functional assay
[7] = biological target: E. coli RNAP, β subunit 677 Asn→Lys (Escherichia coli) (UniProt P0A8T7); assay: cell-based or functional assay
[8] = biological target: E. coli RNAP, β subunit 526 His→Tyr (Escherichia coli) (UniProt P0A8T7); assay: cell-based or functional assay
[9] = biological target: E. coli RNAP, β′ subunit 763 Phe→Cys (Escherichia coli) (UniProt P0A8T7); assay: cell-based or functional assay
[10] = biological target: E. coli RNAP, β′ subunit 783 Leu→Arg (Escherichia coli) (UniProt P0A8T7); assay: cell-based or functional assay
[11] = biological target: E. coli RNAP, β′ subunit 758 Pro→Ser (Escherichia coli) (UniProt P0A8T7); assay: cell-based or functional assay
[12] = biological target: E. coli RNAP, β′ subunit 738 Arg→Pro (Escherichia coli) (UniProt P0A8T7); assay: cell-based or functional assay
[13] = biological target: E. coli RNAP, β subunit 531 Ser→Leu (Escherichia coli) (UniProt P0A8T7); assay: cell-based or functional assay
[14] = biological target: E. coli RNAP, β′ subunit 748 Ala→Glu (Escherichia coli) (UniProt P0A8T7); assay: cell-based or functional assay
[15] = biological target: E. coli RNAP, β subunit 561 Ile→Ser (Escherichia coli) (UniProt P0A8T7); assay: cell-based or functional assay
[16] = biological target: E. coli RNAP, β subunit 677 Asn→His (Escherichia coli) (UniProt P0A8T7); assay: cell-based or functional assay
[17] = biological target: E. coli RNAP, β′ subunit 779 Ala→Val (Escherichia coli) (UniProt P0A8T7); assay: cell-based or functional assay
[18] = biological target: E. coli RNAP, β subunit 680 Leu→Met (Escherichia coli) (UniProt P0A8T7); assay: cell-based or functional assay
[19] = biological target: E. coli RNAP, β′ subunit 758 Pro→Thr (Escherichia coli) (UniProt P0A8T7); assay: cell-based or functional assay
[20] = biological target: E. coli RNAP, β subunit 569 Ile→Ser (Escherichia coli) (UniProt P0A8T7); assay: cell-based or functional assay
[21] = biological target: E. coli RNAP, β′ subunit 738 Arg→Ser (Escherichia coli) (UniProt P0A8T7); assay: cell-based or functional assay
[22] = biological target: E. coli RNAP, β′ subunit 690 Asn→Asp (Escherichia coli) (UniProt P0A8T7); assay: cell-based or functional assay
[23] = biological target: E. coli RNAP, β′ subunit 697 Met→Val (Escherichia coli) (UniProt P0A8T7); assay: cell-based or functional assay
[24] = biological target: E. coli RNAP, β′ subunit 775 Ser→Ala (Escherichia coli) (UniProt P0A8T7); assay: cell-based or functional assay
[25] = biological target: E. coli RNAP, β subunit 526 His→Asp (Escherichia coli) (UniProt P0A8T7); assay: cell-based or functional assay
[26] = biological target: E. coli RNAP, β subunit 675 Asp→Ala (Escherichia coli) (UniProt P0A8T7); assay: cell-based or functional assay
[27] = biological target: E. coli RNAP, β subunit 665 Ala→Glu (Escherichia coli) (UniProt P0A8T7); assay: cell-based or functional assay
[28] = biological target: E. coli RNAP, β subunit 516 Asp→Val (Escherichia coli) (UniProt P0A8T7); assay: cell-based or functional assay
[29] = biological target: E. coli RNAP, β′ subunit 782 Gly→Cys (Escherichia coli) (UniProt P0A8T7); assay: cell-based or functional assay
[30] = biological target: E. coli RNAP, β′ subunit 779 Ala→Thr (Escherichia coli) (UniProt P0A8T7); assay: cell-based or functional assay
[31] = biological target: E. coli RNAP, β′ subunit 738 Arg→Cys (Escherichia coli) (UniProt P0A8T7); assay: cell-based or functional assay

ONC(=Nc1ccccc1)c1cccc(C(F)(F)F)c1 [CBR703]
cross-resistance level (MIC/MICwild-type) ([1]; Sal-resistant mutant rpoB (RNAP β subunit) 569 Ile→Ser): 1
cross-resistance level (MIC/MICwild-type) ([1]; Sal-resistant mutant rpoB (RNAP β subunit) 675 Asp→Ala): ≦0.25
cross-resistance level (MIC/MICwild-type) ([1]; Sal-resistant mutant rpoB (RNAP β subunit) 677 Asn→His): 1
cross-resistance level (MIC/MICwild-type) ([1]; Sal-resistant mutant rpoB (RNAP β subunit) 677 Asn→Lys): ≦0.25
cross-resistance level (MIC/MICwild-type) ([1]; Sal-resistant mutant rpoC (RNAP β′ subunit) 690 Asn→Asp): ≦0.25^b
cross-resistance level (MIC/MICwild-type) ([1]; Sal-resistant mutant rpoC (RNAP β′ subunit) 697 Met→Val): 0.5
cross-resistance level (MIC/MICwild-type) ([1]; Sal-resistant mutant rpoC (RNAP β′ subunit) 738 Arg→Cys): ≦0.25
cross-resistance level (MIC/MICwild-type) ([1]; Sal-resistant mutant rpoC (RNAP β′ subunit) 738 Arg→Pro): ≦0.25
cross-resistance level (MIC/MICwild-type) ([1]; Sal-resistant mutant rpoC (RNAP β′ subunit) 738 Arg→Ser): 1
cross-resistance level (MIC/MICwild-type) ([1]; Sal-resistant mutant rpoC (RNAP β′ subunit) 748 Ala→Glu): ≦0.25
cross-resistance level (MIC/MICwild-type) ([1]; Sal-resistant mutant rpoC (RNAP β′ subunit) 763 Phe→Cys): ≦0.25
cross-resistance level (MIC/MICwild-type) ([1]; Sal-resistant mutant rpoC (RNAP β′ subunit) 779 Ala→Thr): 1
cross-resistance level (MIC/MICwild-type) ([1]; Sal-resistant mutant rpoC (RNAP β′ subunit) 779 Ala→Val): ≦0.25
cross-resistance level (MIC/MICwild-type) ([1]; Sal-resistant mutant rpoC (RNAP β′ subunit) 780 Arg→Cys): 0.5
cross-resistance of Sal-resistant mutants (in words) [1]: no cross-resistance
MIC with wild-type rpoC and wild-type rpoB (E. coli D21f2tolC [2]): 6.25 µg/mL
spontaneous resistance frequency (E. coli D21f2tolC [3]): 2×10^−10

CO[C@H]1/C=C/O[C@@]2(C)Oc3c(C)c(O)c4c(O)c(c(/C=N/N5CCN(C)CC5)c(O)c4c3C2=O)NC(=O)/C(C)=C\C=C\[C@H](C)[C@H](O)[C@@H](C)[C@@H](O)[C@@H](C)[C@H](OC(C)=O)[C@@H]1C [rifampin]
cross-resistance of Sal-resistant mutants (in words) [1]: not cross-resistant; also recorded: no cross-resistance
hypersensitivity of Sal-resistant mutants ([1]; {}): 2 fold
MIC (E. coli D21f2tolC [2]; Escherichia coli, D21F2TOLC): 0.098 µg/mL (≈ 0.119 µM)
spontaneous resistance frequency (E. coli D21f2tolC [3]): 1×10^−8
spontaneous resistance frequency (E. coli D21f2tolC [3]; listed as Rif): 1 × 10^−8

salinamide A (peptide)
MIC (broth microdilution, D21f2tolC pRL663 and D21f2tolC pRL706 derivatives) [4]: 0.098 µg/ml
MIC (broth microdilution, E. coli D21f2tolC) [4]: 0.024 µg/mL
resistance level (MIC/MICwild-type) (MIC/MICwild-type) [5]: > 16
resistance level (MIC/MICwild-type), plasmid-borne rpoC (MIC/MICwild-type) [5]: 8
resistance level (MIC/MICwild-type) (MIC/MICwild-type) [6]: > 16
resistance level (MIC/MICwild-type) (MIC/MICwild-type) [7]: > 16
cross-resistance level (MIC/MICwild-type) to Sal (MIC/MICwild-type) [8]: 1
resistance level (MIC/MICwild-type) (MIC/MICwild-type) [9]: 16
resistance level (MIC/MICwild-type) (MIC/MICwild-type) [10]: > 16
resistance level (MIC/MICwild-type) (MIC/MICwild-type) [11]: 16
resistance level (MIC/MICwild-type) (MIC/MICwild-type) [12]: > 16
cross-resistance level (MIC/MICwild-type) to Sal (MIC/MICwild-type) [13]: 1
resistance level (MIC/MICwild-type) (MIC/MICwild-type) [14]: 16
resistance level (MIC/MICwild-type), plasmid-borne rpoB (MIC/MICwild-type) [15]: 2
resistance level (MIC/MICwild-type) (MIC/MICwild-type) [16]: > 16
resistance level (MIC/MICwild-type) (MIC/MICwild-type) [17]: > 16
resistance level (MIC/MICwild-type), plasmid-borne rpoB (MIC/MICwild-type) [18]: 4
resistance level (MIC/MICwild-type), plasmid-borne rpoC (MIC/MICwild-type) [19]: 4
resistance level (MIC/MICwild-type) (MIC/MICwild-type) [20]: > 16
resistance level (MIC/MICwild-type) (MIC/MICwild-type) [21]: > 16
resistance level (MIC/MICwild-type) (MIC/MICwild-type) [22]: 16
resistance level (MIC/MICwild-type) (MIC/MICwild-type) [23]: > 16
resistance level (MIC/MICwild-type) (MIC/MICwild-type) [24]: 8
cross-resistance level (MIC/MICwild-type) to Sal (MIC/MICwild-type) [25]: 1
resistance level (MIC/MICwild-type) (MIC/MICwild-type) [26]: > 16
resistance level (MIC/MICwild-type), plasmid-borne rpoB (MIC/MICwild-type) [27]: 8
cross-resistance level (MIC/MICwild-type) to Sal (MIC/MICwild-type) [28]: 1
resistance level (MIC/MICwild-type), plasmid-borne rpoC (MIC/MICwild-type) [29]: 8
resistance level (MIC/MICwild-type) (MIC/MICwild-type) [30]: > 16
resistance level (MIC/MICwild-type) (MIC/MICwild-type) [31]: > 16
